The target in the test is Orai1-CFP, Q96D31. Kind of test: E-FRET in cells (Orai1-CFP / STIM1-YFP). To be noted: chain shown with the change, HEK-S1S2dKO-O1CFP cells, store-depletion with 2.5 µM ionomycin, parent: est. 0.11, read off a plot.

Positions count from the first letter of the chain named.

Orai1-CFP, Q96D31, sequence (Q96D31 whole entry): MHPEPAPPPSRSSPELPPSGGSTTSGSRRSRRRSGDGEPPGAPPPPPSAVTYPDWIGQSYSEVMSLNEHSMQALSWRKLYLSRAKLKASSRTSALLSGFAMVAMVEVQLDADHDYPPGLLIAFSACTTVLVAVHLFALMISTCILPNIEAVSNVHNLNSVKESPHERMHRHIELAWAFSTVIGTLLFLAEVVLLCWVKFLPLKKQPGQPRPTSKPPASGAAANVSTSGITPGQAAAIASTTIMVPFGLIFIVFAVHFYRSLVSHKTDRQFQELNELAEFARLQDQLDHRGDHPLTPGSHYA

B1: STIM1-YFP-WT, Q13586 F394del (protein)
chain: LSHSHSEKATGTSSGANSEESTAAEFCRIDKPLCHSEDEKLSFEAVRNIHKLMDDDANGDVDVEESDEFLREDLNYHDPTVKHSTFHGEDKLISVEDLWKAWKSSEVYNWTVDEVVQWLITYVELPQYEETFRKLQLSGHAMPRLAVTNTTMTGTVLKMTDRSHRQKLQLKALDTVLFGPPLLTRHNHLKDFMLVVSIVIGVGGCWFAYIQNRYSKEHMKKMMKDLEGLHRAEQSLHDLQERLHKAQEEHRTVEVEKVHLEKKLRDEINLAKQEAQRLKELREGTENERSRQKYAEEELEQVREALRKAEKELESHSSWYAPEALQKWLQLTHEVEVQYYNIKKQNAEKQLLVAKEGAEKIKKKRNTLFGTHVAHSSSLDDVDHKILTAKQALSEVTAALRERLHRWQQIEILCGFQIVNNPGIHSLVAALNIDPSWMGSTRPNPAHFIMTDDVDDMDEEIVSPLSMQSPSLQSSVRQRLTEPQHGLGSQRDLTHSDSESSLHMSDRQRVAPKPPQMSRAADEALNAMTSNGSHRLIEGVHPGSLVEKLPDSPALAKKALLALNHGLDKAHSLMELSPSAPPGGSPHLDSSRSHSPSSPDPDTPSPVGDSRALQASRNTRIPHLAGKKAVAEEDNGSIGEETDSSPGRKKFPLKIFKKPLKK
Regarding B1, for the setting “n = 106 (WT n = 579)”, the response came out at 0.003.

B2: STIM1-YFP-WT, Q13586 H395del (protein)
chain: B1 chain with H372F
Regarding B2, the response (n = 207 (WT n = 579)) was 0.082.

B3: STIM1-YFP-WT, Q13586 H398del (protein)
chain: B1 chain with H372F, V373H, A374V, H375A
For the molecule B3, under “n = 100 (WT n = 579)”, the response was found to be 0.07.

B4: STIM1-YFP-WT, Q13586 H395del; V396del (protein)
chain: LSHSHSEKATGTSSGANSEESTAAEFCRIDKPLCHSEDEKLSFEAVRNIHKLMDDDANGDVDVEESDEFLREDLNYHDPTVKHSTFHGEDKLISVEDLWKAWKSSEVYNWTVDEVVQWLITYVELPQYEETFRKLQLSGHAMPRLAVTNTTMTGTVLKMTDRSHRQKLQLKALDTVLFGPPLLTRHNHLKDFMLVVSIVIGVGGCWFAYIQNRYSKEHMKKMMKDLEGLHRAEQSLHDLQERLHKAQEEHRTVEVEKVHLEKKLRDEINLAKQEAQRLKELREGTENERSRQKYAEEELEQVREALRKAEKELESHSSWYAPEALQKWLQLTHEVEVQYYNIKKQNAEKQLLVAKEGAEKIKKKRNTLFGTFAHSSSLDDVDHKILTAKQALSEVTAALRERLHRWQQIEILCGFQIVNNPGIHSLVAALNIDPSWMGSTRPNPAHFIMTDDVDDMDEEIVSPLSMQSPSLQSSVRQRLTEPQHGLGSQRDLTHSDSESSLHMSDRQRVAPKPPQMSRAADEALNAMTSNGSHRLIEGVHPGSLVEKLPDSPALAKKALLALNHGLDKAHSLMELSPSAPPGGSPHLDSSRSHSPSSPDPDTPSPVGDSRALQASRNTRIPHLAGKKAVAEEDNGSIGEETDSSPGRKKFPLKIFKKPLKK
In the case of B4, where the note is “n = 87 (WT n = 579)”, the response turned out to be 0.074.

B5: STIM1-YFP-WT, Q13586 V396del; A397del (protein)
chain: B4 chain with A373H
On to B5, for which the response (n = 107 (WT n = 579)) is 0.034.

For the origin of these results see publication PMC10616141.
